These results are taken from patent US20120039904A1 (Kyowa Kirin, published 2012).

Experiment [1] addresses T1, human ASCT2 (system ASC amino acid transporter 2), endogenous on human tumour cell lines (human, UniProt Q15758 1-541).
T1 construct: Endogenous ASCT2 of cell lines KMS-11 (stated to express ASCT2 mRNA), WiDr and OPM-2; also called SLC1A5; ASCT2 on KMS-11, OPM-2, WiDr cells
T1 sequence: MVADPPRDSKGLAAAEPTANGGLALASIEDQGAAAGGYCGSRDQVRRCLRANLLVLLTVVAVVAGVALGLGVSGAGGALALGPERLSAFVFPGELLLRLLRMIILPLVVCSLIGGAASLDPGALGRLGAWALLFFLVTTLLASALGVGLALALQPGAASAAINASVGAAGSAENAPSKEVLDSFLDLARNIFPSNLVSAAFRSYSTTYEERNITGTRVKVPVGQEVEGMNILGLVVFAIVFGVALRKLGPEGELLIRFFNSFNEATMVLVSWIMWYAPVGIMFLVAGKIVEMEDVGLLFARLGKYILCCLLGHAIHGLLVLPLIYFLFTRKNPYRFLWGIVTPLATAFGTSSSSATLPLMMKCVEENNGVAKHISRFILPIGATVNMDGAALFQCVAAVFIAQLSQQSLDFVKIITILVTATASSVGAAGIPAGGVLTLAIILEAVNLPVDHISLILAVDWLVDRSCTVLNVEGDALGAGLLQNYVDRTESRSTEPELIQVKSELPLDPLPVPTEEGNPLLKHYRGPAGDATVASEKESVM
Nature of the experiment: flow cytometry on KMS-11 cells. (In general: Flow cytometry measures light scatter and fluorescence of single cells or particles in a stream.)

Experiment [2] has as its target T2, mouse EL4 type ASCT2-myc/His (mouse/human chimeric ASCT2), expressed on CHO cells (human/mouse chimera, UniProt Q15758 1-541).
T2 construct: also called mEL4/CHO; mEL4
T2 sequence: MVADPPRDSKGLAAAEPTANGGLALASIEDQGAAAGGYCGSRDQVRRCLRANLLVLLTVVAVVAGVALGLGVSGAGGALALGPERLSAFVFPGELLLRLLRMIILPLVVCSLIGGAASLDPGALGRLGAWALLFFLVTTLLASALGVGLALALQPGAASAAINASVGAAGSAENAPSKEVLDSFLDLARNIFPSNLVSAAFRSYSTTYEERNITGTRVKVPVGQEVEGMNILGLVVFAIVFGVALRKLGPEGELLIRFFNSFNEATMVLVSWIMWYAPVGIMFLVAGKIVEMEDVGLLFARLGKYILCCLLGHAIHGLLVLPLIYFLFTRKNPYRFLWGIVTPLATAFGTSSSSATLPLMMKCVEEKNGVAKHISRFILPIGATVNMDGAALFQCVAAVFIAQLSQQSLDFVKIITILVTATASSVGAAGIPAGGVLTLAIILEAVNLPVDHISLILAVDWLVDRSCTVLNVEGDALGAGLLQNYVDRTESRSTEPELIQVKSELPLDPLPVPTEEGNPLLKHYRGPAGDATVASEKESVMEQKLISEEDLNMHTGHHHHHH
Kind of experiment: flow cytometry on mEL4/CHO cells; '+' = presence of reactivity. As to the method: (§1) Using the mouse ASCT2/CHO and mouse/human chimeric ASCT2/CHO cells constructed in Examples 10 and 11 and FITC-labeled anti-mouse immunoglobulin G (H+L) (manufactured by Dako) or ALEXA488-labeled anti-rat immunoglobulin G […] (manufactured by Invitrogen) as the secondary antibody, the reactivity of anti-ASCT2 monoclonal antibodies KM4008, KM4012 and KM4018 was measured in the same manner as in Example 9(1).
(§2) In Table 2, the symbols “+”, “−”, and “±” represent the presence of reactivity, the absence of reactivity, and the decrease in reactivity, respectively.

Experiment [3] concerns the target T3, human ASCT2-myc/His (fusion protein in which myc/His was added to the C-terminal of human ASCT2), expressed … (human, UniProt Q15758 1-541).
T3 construct: Amino acid transporter with C-terminal myc/His tag, stably expressed in CHO/DG44 cells; cell lysates of these cells were used for Western blotting and immunoprecipitation; also called ASCT2/CHO; human ASCT2-myc/His gene-introduced CHO cell
T3 sequence: T2 sequence with K367N
Nature of the experiment: flow cytometry on human ASCT2/CHO cells; '+' = presence of reactivity.

Experiment [4] has as its target T4, mouse EL2 type ASCT2-myc/His (mouse/human chimeric ASCT2), expressed on CHO cells (human/mouse chimera).
T4 construct: also called mEL2/CHO; mEL2
T4 chain: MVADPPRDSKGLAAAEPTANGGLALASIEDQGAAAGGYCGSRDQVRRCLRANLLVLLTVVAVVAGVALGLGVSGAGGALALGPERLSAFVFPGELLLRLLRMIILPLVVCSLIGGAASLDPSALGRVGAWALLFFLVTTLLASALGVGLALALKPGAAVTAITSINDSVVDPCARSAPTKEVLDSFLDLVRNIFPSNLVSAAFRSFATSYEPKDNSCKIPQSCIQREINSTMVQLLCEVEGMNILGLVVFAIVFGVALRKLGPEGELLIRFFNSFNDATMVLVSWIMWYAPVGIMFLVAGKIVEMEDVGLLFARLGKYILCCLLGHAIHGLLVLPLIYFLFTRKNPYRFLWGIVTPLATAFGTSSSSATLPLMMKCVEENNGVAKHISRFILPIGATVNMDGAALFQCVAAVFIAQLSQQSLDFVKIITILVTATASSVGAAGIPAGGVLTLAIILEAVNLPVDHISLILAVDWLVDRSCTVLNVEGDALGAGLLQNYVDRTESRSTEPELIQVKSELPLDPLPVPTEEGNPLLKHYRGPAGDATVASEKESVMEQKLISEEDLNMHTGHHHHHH
Nature of the experiment: flow cytometry on mEL2/CHO cells; '-' represents the absence of reactivity. The method, then: as §1, §2

Experiment [5] deals with T5, mouse ASCT2-myc/His, expressed on CHO cells (mouse, UniProt P51912 1-553).
T5 construct: also called mouse ASCT2/CHO
T5 sequence: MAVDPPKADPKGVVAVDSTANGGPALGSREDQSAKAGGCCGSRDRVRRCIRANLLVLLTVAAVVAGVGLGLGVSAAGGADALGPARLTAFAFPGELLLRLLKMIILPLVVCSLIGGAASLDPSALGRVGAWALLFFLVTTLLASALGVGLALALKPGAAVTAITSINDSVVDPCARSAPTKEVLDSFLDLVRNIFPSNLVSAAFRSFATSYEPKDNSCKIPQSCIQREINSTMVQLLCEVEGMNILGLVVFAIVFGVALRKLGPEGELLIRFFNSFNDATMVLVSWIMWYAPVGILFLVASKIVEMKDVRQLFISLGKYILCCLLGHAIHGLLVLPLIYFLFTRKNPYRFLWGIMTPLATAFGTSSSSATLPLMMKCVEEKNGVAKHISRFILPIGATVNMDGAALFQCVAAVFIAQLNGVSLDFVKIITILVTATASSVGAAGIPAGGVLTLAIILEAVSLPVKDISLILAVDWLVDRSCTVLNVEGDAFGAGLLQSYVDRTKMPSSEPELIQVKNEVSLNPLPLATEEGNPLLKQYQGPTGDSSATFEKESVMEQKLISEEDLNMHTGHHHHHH
Kind of experiment: flow cytometry on mouse ASCT2/CHO cells; '-' represents the absence of reactivity. The method, then:
as §1, §2

Residue numbers refer to the chain shown, from its start.

B1: anti-ASCT2 monoclonal antibody KM4018 (antibody, rat IgG2a, V domains shown)
VH: EVQLVESGGGLVQSGRSIRLSCAASGFSFSNYYMAWVRQAPSKGLEWVASITKGGGNTYYRDSVKGRFTFSRDNAKSTLYLQMDSLRSEDTATYYCARQVTIAAVSTSYFDSWGQGVMVTVSS
VL: DIVLTQSPALAVSLGQRATISCKTNQKVDYYGNSYVYWYQQKPGQQPKLLIYLASNLASGIPARFSGRGSGTDFTLTIDPVEADDTATYYCQQSRNLPYTFGAGTKLELKR
notes: rat IgG2a, kappa
Take B1: the binding result in experiment [1] is on record as “binds”; in experiment [2], “binds”; in experiment [3] it was “binds”; in experiment [4], “no binding”; in experiment [5], “no binding”.
